Experimental data taken from the DeepSol protein solubility set.

assay: soluble on expression in E. coli; label from the status in PepcDB or PDB records

| Sequence | soluble on expression in E. coli |
| --- | --- |
| MNQIIENAFVKVEVSPHGAELQSIFNKQFHLEYLWQGDPAVWPRKAPVLFPIVGKVKDNQYTISGKTYSLSQHGFARDNAFTLVSATDTTLVYRLTHSEDSFKNFPYEFELDISYSIEHSILKVAYKIHNSSGTSDLYYSIGAHPGFRCPLVEGETFEDYYLEFEKAEKLNRVLLDGGLRGDQTEPVPLTNNKLPLSVNLFGSKDAIVVSGLHSERISLKSNKSVHGLHFDYKNYPWFGIWSKPGPFVCLEPWMGVADDIHAAGDFIKKESIQFLQPKAEALFTYSIELFLEHHHHHH | not soluble |
| MGQFYCLHCDRYFSNVSVRDDHFKTKKHKKRVNMMMGQAPHSQLDADLAGGMGMPDNGPKLMSNLVFTELRKPETEDLPGMGQFNCLLCHRNFSNASVMDYHFKTKKHKKRVKKIERPAPHSQLDADLAGGMGMPDNGPKLMSA | not soluble |
| MSALASKLFAKCAAGGRALQSQAVRQFSAYPIDDSMFGLNDEEIALRQSIRQFADKELAPYADKIDKDNGWDQLRPFWKKLGDQGLLGITAPAEYGGSGMNYFSHVIAMEELSRAAGGIALSYGAHSNLCINQIVRNGSEEQRKKYLPKLISGEHMGALAMSEAQAGSDVVSMKLRAEKKGDKYVLNGTKFWITNGPDADVLVVYAKTDPSKHQHGITCFLVEKNTPGFSQSPKLDKLGMRGSNTCELVFDNCEIHESQIMGGKGKGVYVLMTGLDYERLVLSGGPLGLMQAACDIAFDYAHQRTAFGQKIGSFQLLQGKLADMYTTLNASRSYLYMVAKAADKGNVSNKDCAGVILYVAEKCTQVCLDAIQILGGNGYINDYPAGRLLRDAKLYEIGAGTSEVRRLIIGRALNKEYSN | not soluble |
| MEKKIGFIGCGNMGKAILGGLIASGQVLPGQIWVYTPSPDKVAALHDQYGINAAQSAQEVAQVADIVFGAVKPGIMVKVLSEISSSLNKDSLVVSIAAGVTLDQLARALGHDRKIIRAMPNTPSLVNAGMTSVTPNALVTPEDTADVLNIFRCFGGAEVIAEPMIHPVVGVSGSSPAYVFMFIEAMADAAVLGGMPRAQAYKFAAQAVMGSAKMVLETGKHPGELKDMVCSPGGTTIEAVRVLEERGFRAAVIEAMTKCMEKSEALSKSLEHHHHHH | soluble |
| MGNRIPDEIVDQVQKSADIVEVIGDYVQLKKQGRNYFGLCPFHGESTPSFSVSPDKQIFHCFGCGAGGNVFSFLRQMEGYSFAESVSHLADKYQIDFPDDITVHSGARPESSGEQKMAEAHELLKKFYHHLLINTKEGQEALDYLLSRGFTKELINEFQIGYALDSWDFITKFLVKRGFSEAQMEKAGLLIRREDGSGYFDRFRNRVMFPIHDHHGAVVAFSGRALGSQQPKYMNSPETPLFHKSKLLYNFYKARLHIRKQERAVLFEGFADVYTAVSSDVKESIATMGTSLTDDHVKILRRNVEEIILCYDSDKAGYEATLKASELLQKKGCKVRVAMIPDGLDPDDYIKKFGGEKFKNDIIDASVTVMAFKMQYFRKGKNLSDEGDRLAYIKDVLKEISTLSGSLEQEVYVKQLASEFSLSQESLTEQLSVFSKQNKPADNSGETKTRRAHLTTKARQKRLRPAYENAERLLLAHMLRDRSVIKKVIDRVGFQFNIDEHRALAAYLYAFYEEGAELTPQHLMARVTDDHISQLLSDILMLQVNQELSEAELSDYVKKVLNQRNWSMIKEKEAERAEAERQKDFLRAASLAQEIVTLNRS | not soluble |
| MHHHHHHSSGVDLGTENLYFQSMARLPKLAVFDLDYTLWPFWVDTHVDPPFHKSSDGTVRDRRGQDVRLYPEVPEVLKRLQSLGVPGAAASRTSEIEGANQLLELFDLFRYFVHREIYPGSKITHFERLQQKTGIPFSQMIFFDDERRNIVDVSKLGVTCIHIQNGMNLQTLSQGLETFAKAQTGPL | soluble |
| MGSEQNDSTSFTQSQASEPKLCVKGCGFFGSPSNMDLCSKCYRGICAEEAQTAVAKAAVEKSFKPSPPRSLFIAEPPAVVVEPKPEKAAVVVVSAEPSSSAVPEANEPSRPARTNRCLCCNKKVGIMGFKCKCGSTFCGEHRYPETHDCSFDFKEVGRGEIAKANPVVKADKIQRF | soluble |
| GMDEKPAITKIISGGQTGADRAALDFAIKHHIPYGGWVPKGRLAEGGRVPETYQLQEMPTSDYSKRTEKNVLDSDGTLIISHGILKGGSALTEFFAEQYKKPCLHIDLDRISIEDAATLINSWTVSHHIQVLNIAGPRAGKDPEIYQATMDLLEVFLA | soluble |
| MADSNDLMSEFQKLQQETSKIQSHLTKDFLSSSAKLSENRVLQATQELCGKLTEKQKVQDDTINLLLSALGQIQENQNKILNQFASMQSQLDIVKRRQDAYERDLIQQKPSVPEQKVGESSKKSPRSAESALKYVETCTKVVDLCIAVSMPGRLFSIGANKMESVEQLKMKIECQTGIPRTKFWLRLHGKPLYDDKKLADYKWDTSVELLVRAS | not soluble |
| MGSDKIHHHHHHMESAIDKHLVCPRTLSRRVADDYQPPFPMYVARAAEDLSQVVMGYFGVQYRGADQRSVALAALRRIVADFDAPDGPGNHDLTQHTDNQGYDNLIAVGYWRDPDAYARWIASPAVAEWWASDARLADGIGYFREIVAPRAEQFETLYAFTNDFPGVGSIMDGVSGEIEEHGYWGSMRDRFPISQTDWMHADGELRIVAGDPARGGRVVVLAHDNIALIRSGQDWRAAEDDERRLYLDEIEPTLRSGMDFLRDNGVDVGCYSNRYVRSIDLDGNLLDESYNIGHWRSLDRLERWAESHPTHLRIFVTFFRVVTGLSKLRLYHEVSVFDAKHQVYEYVNCHPTTGMMRDAVAR | not soluble |
| MSLGTQEDVLSLISGGFDSGVSSYLHIKRGSKVHYCFFNLGGPAHEIGVKQTAYYLWQKYGSSAKVRFIAIDFAPVVAEILEKIDDGQMGVVLKRMFMRTAGMVAEKFGIQALVTGEALGQVSSQTLTNLRHIDNVTDTLILRPLINWDKEDIIRLAREIGTEDFAKTMPEFCGVISKSPTVKAVKEKLEEEEAKFDFALLDQVVYNARQIDIRDIGKESLEKAPEVELVNSAEEGNAVVLDIRSPDEEDESPLEIVGVEVKHLPFYKLATQFGDLDQSKTYLLYCSRGVMSRLQALYLQEQGFNNVKVYREGHHHHHH | not soluble |
| MSLEAVKTIEKEKKDLEQKRIEEATEEEIKPGDHVKMEGGTSVGKVVEVKSGTALVDFGFLRLKVPVSKLRKTKKEEKKETSTFSYKPSSFRTEIDIRGMTVEEAEPVVKKFIDDLMMNGISKGYIIHGKGTGKLASGVWEILRKDKRVVSFRFGTPSEGGTGVTVVEVKEGHHHHHH | soluble |
| MGSDKIHHHHHHARRNSTSRGSDSAARSPPSIRASHLKHCCFPIKEPTMSTINYSEKIPNNVNLADDRTLQRALEQWQPNFLSWWGDMGPDGSHGYDVYLRTAVSVDAGGWAHFDHVKMPDYRWGIFLTPGEQDRKIQFGEHKGEAAWQDVPGEHRANLRRIIVTQGDTEPASVEQQRHLGLTAPSMYDLRNLFQVNVEEGRHLWAMVYLLHRYFGRDGREEAEALLGRRSGDDDNPRILGAFNEKTPDWLAFYMFTYFTDRDGKFQLSALAESGFDPLARTTKFMLTEEAHHMFVGESGVSRVVQRTAQVMNELKTDDVNQIRAAGVIDLPTIQRYLNFHYSVTIDLFGADHSSNAATFYSSGLKGRYEETKRDDDHQLGGQSYKLLDVQDGKLVEREVPMLNAMNEVLRDDYIKDSVAGVNRWNKVLEKAGIEFRLTVPHKAFNRQIGTFAGTRVAPDGRVVSETEWAANEAKWLATPEDRAYVASLMGRVVEPGKFANWIAPPAMGINRQPIDFEYVRFN | not soluble |
| GPGSMLRAACCVLSGFPASVSRLFFLSWISLVDTALSFPPPRQTEIAPTRVWAGEGGGGGITALQAVTCPSHSTTCAACAGAGQHPPPPCQPPCRCVRVRVCVVHALLLPPPPSLAILLSCAQTTSTSLPPCFRRQSRARPPPHTHTHIHKHRASCAHHLSLPLLPHMSTAADRQAFLRLMGLTDADVTDPDHQPCAMLHSQTSSSHNVTDKVHRGVKYNSPTASSVAGLSHSASLGGDAIQFSLMNTTNTLRDTSPIVASGPSSSSSRPLFSAPRSVHWEEESIATTSHSSQLPQRAGASGCTAAAISEELKDVGNRSFEAGAFREAVQHYTAAIDALAASTTHSSAEVLLLSALYSNRSAAYLQAAHQMPSVEDAYARALCDADRTVSLRTSWFKGYARQGDAYFKLKRYGAAAEAYEMALQLDPRNKTLMNALSESRQRARHAAREELELRRTMRSTTSTTSSLASSMTGQAGSSTWSEGDPRGGAAASQQAQTLSDVYDGGRRRSGQAQQLWAALKHEVEATVHEVTGDAYRLQQLERFRARCSKGATPTARQAAERKTYVKGVTALASGAPASEPMREASVSGSRFSTATRPDVDVSTAAAAAAAERRHVSSVSPFAATALSSEPHLPPRRRSSASAAFDGPVKNARDVPYEFSSAAASAYQQRLLEEFRKRKATKQ | not soluble |
| MGSSHHHHHHSSGLVPRGSHMLKQKELIANVKNLTESDERITACMMYGSFTKGEGDQYSDIEFYIFLKHSITSNFDSSNWLFDVAPYLMLYKNEYGTEVVIFDNLIRGEFHFLSEKDMNIIPSFKDSGYIPDTKAMLIYDETGQLENYLSEISGARPNRLTEENANFLLCNFSNLWLMGINVLKRGEYARSLELLSQLQKNTLQLIRMAEKNADNWLNMSKNLEKEISLENYKKFAKTTARLDKVELFEAYKNSLLLVMDLQSHLIEQYNLKVTHDILERLLNYISE | soluble |
| MMEIKRVLKDRLSARVCVIGAGPSGIAAIKNLQEHGITNVTVFEKNNQIGGNWVYDEQNEHSSVYETTHIISSKRWSEFEDFPMPVDYPDYPSHSQLLKYFQSYVEHFHLDRYIRFNTVVQKVHRLDDNTWHVIYEDAQGIHEACYDYLLVANGHHWDPFMPVYPGVFDGEILHSHQYKKASIFKGKRVLVVGGGNSACDVAVEISRVAPGTCISMRRGYHIFPKFIFGKPTDVAVAKIQWMPSWLRQKFISLVIRGLQGRYAKYKLMKPDCGPLEIHPTINSELLYFIRHGKIHPRSGISRFEGNTVHFTDRTQGEFDTIIFATGYQISFPFFDKSCIDFSNSTTIPLYRKMMHPEFENLYFIGLCQPQGCIWPLADYQSKIVARIIAGTLKRPDQLHRKIAKEINKPHHRFKSHMRHALEVDYHIFRKELLEMLGQKHKRLKFYPLEHHHHHH | soluble |
| MGSDKIHHHHHHMSFSGFEQFIGLVANRYGKPGTPHSEEQHSDYEAGTVLLGSETWHIRTARVTPTKPGAFVAFWMRNEQGEICPFDSSEACAGLLIFVQDESNFGVFRFTREQLEQQGITRSTKRPGKRGFRVYPSWSGNLNAQAKKTQAIQTPSFELLQ | not soluble |
| MNSPLPDVALTEVSSALIALDWVGMQGVEVPLTLGEQGATHPVHAYADLQVDLTDPSVKGIHMSRLYRLLDGFAEHQVLTPETLSALLEAMVESHVDCHSSGARITLTFNLLCRRPALVTEGLSGWKSYPVKLEAVWRAGRLCLDVSADITYSSTCPCSAALSRQLLEEAFVARFGRQSFVDPMQVAAWLRENASYATPHSQRSVATVQVRVAEQATEMGLMALIDTVEQALGTPVQTAVKRADEQAFARLNGQNLMYVEDAARKIQQALEGRYPASSVSVRHFESLHPHDAAAQTSSYLS | not soluble |
| MGICVSFRREDSNSSPTVKIVTVNGDLREYNVPVIASQVLEAESAAAYSSSSSSRPSSYFICDSDSLYYDDFIPAIKSEEPLQADQIYFVLPISKRQSRLTASDMAALAVKASVAIQNSVKKESRRRKKVRISPVMMLTGSNDSVNGNGSETTVKKGRPFVSKTAPVKASSGINRSGSVRNLRRYTSKRAKLAVRSFRLKLSTIYEGSVV | not soluble |
